In the supplement of paper PMC10567573:
± gives the standard deviation.

Test: protein stability index of a GFP-peptide fusion (GPS, HEK-293T) (PSI 1-6); higher = more stable
Details: c terminus: a fixed tail appended
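Further: 24-mer peptide tiles fused after GFP, lentivirally expressed, FACS-sorted into six equal bins by GFP/DsRed ratio, decoded by Illumina sequencing, PSI is the read-weighted mean bin number.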

Sequence | protein stability index (treatment: DMSO) | protein stability index (treatment: MLN4924 1 uM, 8 h)
PGYLPGAMPPYGQGPPMVPPYQGG [ZNF207] | 3.57 ± 0.2 | 3.42 ± 0.2
GSYSSTMNGHQNGLDSPPLYPSAP [ESRRG] | 4.07 ± 0.23 | 4.3 ± 0.14
ALSRKKSQGLAREQHAGTSEGLHL [FBF1] | 4.26 ± 0.28 | 3.78 ± 0.42
RVGQWVRMENVTVLGEDVIVNDEL [GMPPB] | 4.01 ± 0.066 | 4.07 ± 0.24
SQELPPPDPGPSPEASHLRFRRFR [ZNF263] | 4.76 ± 0.21 | 5.14 ± 0.12
LDYYKTGIIRCPDGISIPELREAC [BTBD10] | 2.42 ± 0.34 | 2.5 ± 0.38
EKDLVGLAQIAEVLEMFDLRMMVE [RHOBTB1] | 2.46 ± 0.21 | 2.22 ± 0.38
LPFVLAAAVSRKKKRRMGTYSLVP [EHMT1] | 2.34 ± 0.26 | 2.27 ± 0.24
EELEEALEVERQENEQRRLFIQKE [MNAT1] | 5.05 ± 0.24 | 5 ± 0.16
LFVIRGQPADVFPRLFKEWNITKL [CRY1] | 2.18 ± 0.29 | 2.24 ± 0.32
PDVTQQLLQKYNMQFLIRSHECKP [PPEF2] | 2.8 ± 0.21 | 2.71 ± 0.25
GYVPSNYVERKNSLKKGSLVKNLK [NCK2] | 3.96 ± 0.16 | 3.89 ± 0.19
LAVAGGPRKTAAPVNALVSHLLVV [ESRRA] | 2.92 ± 0.61 | 2.85 ± 0.55
TPSSYAPSHPPRPLLPLDMQGNQI [ZBTB22] | 4.14 ± 0.1 | 4.3 ± 0.14
GHGTRKRVPLGRLELLEEVLALGL [RSAD1] | 2.15 ± 0.21 | 2.3 ± 0.51
REEEDRALPENEFKKQIWLLFEYP [KCNA4] | 2.7 ± 0.19 | 2.94 ± 0.46
EGSPRNLGTPTSSTPRPSITPTKK [C2CD2L] | 5.35 ± 0.19 | 5.34 ± 0.17
WIIKKHNTNSDPLDPSFPVEFVRH [POMT2] | 2.54 ± 0.29 | 2.39 ± 0.51
RGADDAMESSKPGPVQVVLVQKDQ [ATL3] | 5.09 ± 0.3 | 4.95 ± 0.62
GSSPKSKTKWTKEDGHRTSTSAVP [ADD1] | 4.96 ± 0.17 | 4.81 ± 0.25
GLDSPPLYPSAPILGGSGPVRKLY [ESRRG] | 3.37 ± 0.13 | 3.49 ± 0.24
VNPWIIIGGVATVVCQPNEFIMPD [SEPHS2] | 2.67 ± 0.38 | 3.05 ± 0.81
ENDPEWWKCKNARGQVGLVPKNYV [NCK2] | 3.52 ± 0.16 | 3.54 ± 0.12

Sequence | protein stability index (treatment: DMSO) | protein stability index (treatment: MLN4924 1 uM, 8 h)
RKCPVHGKTMELFCQTDQTCICYL [TRIM29] | 2.94 ± 0.61 | 3.72 ± 0.59
PLVTAIEIVSIWILSFILAIPEAI [EDNRA] | 3.48 ± 0.8 | 3.68 ± 0.15
MIGLYEPELGSGAGPAGTGTPSLL [EMID1] | 3.89 ± 0.53 | 3.65 ± 0.71
RAPPKRKRKRVKQRINTYVFVGNQ [PCMTD1] | 3.53 ± 0.15 | 3.41 ± 0.43
KSCQACRLRKCYEVGMVKCGSRRE [ESR2] | 2.35 ± 0.43 | 3.1 ± 0.33
TMSRSLDGASVNENHEIYMKDSMS [EPB41L3] | 5 ± 0.17 | 4.72 ± 0.43
REAVPALLGEPLAGPELDEMLREV [CABP4] | 5.13 ± 0.22 | 5.12 ± 0.31
ELQEKQKNEKLISLQEQLQRFLKK [TAF7L] | 3.36 ± 0.33 | 3.39 ± 0.15
NFRVGKKIGCGNFGELRLGKNLYT [CSNK1G1] | 2.24 ± 0.4 | 2.11 ± 0.15
KSWLNGFRPKDQTSVGMSFVAGGI [SLC25A39] | 2.2 ± 0.18 | 2.43 ± 0.24
NLLALGTDRKLDDGDDKVFRRAPS [PPFIA4] | 4.51 ± 0.25 | 4.5 ± 0.24
SAKTRQRVEDAFYTLVREIRQYRL [KRAS] |  | 2.31 ± 0.4
ARAEQEEEFISNTLFKKIQALQKE [CCDC6] | 3.48 ± 0.41 | 3.77 ± 0.34
HGHNIGKKMSCQQFIANLDQLNDG [PSD2] | 3.26 ± 0.24 | 3.29 ± 0.16
RQLPPPPTPANEERRGGLPPLPLH [WAS] | 4.53 ± 0.22 | 4.52 ± 0.14
RELGPEELDELQAAFEEFDTDRDG [CABP4] | 5.63 ± 0.39 | 5.54 ± 0.35
TASFRTSKYLLEEWFQNCYARYHQ [TEKT4] | 1.89 ± 0.21 | 2.22 ± 0.24
QYAIISEAWRLVEEGIVSPSDLDL [CRYL1] | 3.16 ± 0.19 | 3.21 ± 0.34
LEIPVETITSEVIEKCTTPLSDDH [CRY1] | 4.8 ± 0.23 | 5.02 ± 0.3
IGWKTVRMYPFQIHSIALSTFASL [CDS2] | 2.69 ± 0.65 | 2.65 ± 0.45
VETLLRHGAHINLQSLKFQGGHGP [RIPK4] | 2.63 ± 0.39 | 3.11 ± 0.24
LYFATLRNRPKSTVNTHYFSIDEE [CDC14A] | 2.11 ± 0.17 | 2.15 ± 0.32
SEEMIAEFKAAFDMFDADGGGDIS [TNNC2] | 5.16 ± 0.32 | 5.11 ± 0.43

Sequence | protein stability index (treatment: DMSO) | protein stability index (treatment: MLN4924 1 uM, 8 h)
LCSPGHERRGTPADTEEPTKDPDV [PSD2] | 5.66 ± 0.19 | 5.43 ± 0.26
SASSIKQILLEWCRSKTLGYQHVD [SMTNL2] | 2.22 ± 0.19 | 2.42 ± 0.35
NHTTVTNSTPLRAACFDGRLDIVK [FEM1B] | 3.46 ± 0.23 | 3.4 ± 0.25
RFALRFIRPDPRSRVTDPVGDIVS [FAF2] | 2.49 ± 0.35 | 2.62 ± 0.31
RAAYQQVIQPALPGQPLPGASVRG [TRAF3IP2] | 4.36 ± 0.35 | 4.18 ± 0.32
FIRCSLQCRDLVDEAKKFHLRPEL [KLHL12] | 2.67 ± 0.8 | 2.82 ± 1.4
IRSSFISSLSFFLKKMGKRLDYLN [FBXO39] | 2.71 ± 0.61 | 2.81 ± 0.56
LEEDLKEVLRSEAGIELIIEDDIR [MYBL2] | 4.66 ± 0.35 | 4.68 ± 0.39
QGENQEHLVIAEMMELGSRSRGAS [FATE1] | 4.73 ± 0.34 | 4.73 ± 0.12
LGLFTLILTEPAQAQKCYRDLALV [INTS3] | 3.14 ± 0.36 | 2.79 ± 0.35
RQLRRRALHPERAMDNHSDSEEEL [RETREG3] | 5.47 ± 0.15 | 5.51 ± 0.2
SFSEETEKKFEHFSGLLNNQLSPQ [LOXL2] | 4.09 ± 0.47 | 4.56 ± 0.18
AAWQGHLPIVKLLAKQPGVSVNAQ [RIPK4] | 2.57 ± 0.38 | 3.07 ± 0.61
SEDLDGHSDPEESFARDLPDFPSI [RETREG3] | 5.33 ± 0.2 | 5.13 ± 0.45
FSGQIRLNEDTIQDVVQAADLLLL [GAN] | 2.27 ± 0.24 | 2.3 ± 0.43
DDKHYGGFTNKQLQSGQEYVFFVL [PTPRD] | 2.64 ± 0.53 | 2.55 ± 0.43
IKNLYAFNLFCQKRFDESMQVFAK [VPS39] | 2.19 ± 0.29 | 1.96 ± 0.21
GIRQITSDDFCTFQMVLEGGVCCT [GFOD1] | 2.18 ± 0.21 | 2.22 ± 0.4
PESKEPVEKEEEPDPEPPPVTPQV [SMG5] | 5.54 ± 0.25 | 5.46 ± 0.38
PGIDIREDLAQKLNLEEDRIQIWF [HESX1] | 2.55 ± 0.56 | 2.43 ± 0.41
TEPPQNPVTPLGLQNEVPPQPDPV [SERTAD3] | 5.32 ± 0.26 | 5.48 ± 0.24
YQHFLQDCVDGLFKEVKEKFKGWV [DLC1] | 2.26 ± 0.49 | 2.02 ± 0.11
MKSEEQKIKDARKGPLVPFPNQKS [KMT5A] | 5.01 ± 0.18 | 5.23 ± 0.19
